Data from publication PMC6050272, “A TRAF3-NIK module differentially regulates DNA vs RNA pathways in innate immune signaling” (Nature Communications, 2018).

Molecular target: the molecule itself
Assay: semi-native SDS PAGE; whole-cell lysates of WT and Nik-/- BMDMs transfected with B-DNA (2 μg/mL) for the indicated times; native sample buffer without β-mercaptoethanol, not boiled, run on SDS gels; immunoblot for STING

B1: STING, endogenous in mouse cells (natural protein, mouse (endogenous in MEFs and BMDMs), UniProt Q3TBT3 1-378, looked up)
chain: MPYSNLHPAIPRPRGHRSKYVALIFLVASLMILWVAKDPPNHTLKYLALHLASHELGLLLKNLCCLAEELCHVQSRYQGSYWKAVRACLGCPIHCMAMILLSSYFYFLQNTADIYLSWMFGLLVLYKSLSMLLGLQSLTPAEVSAVCEEKKLNVAHGLAWSYYIGYLRLILPGLQARIRMFNQLHNNMLSGAGSRRLYILFPLDCGVPDNLSVVDPNIRFRDMLPQQNIDRAGIKNRVYSNSVYEILENGQPAGVCILEYATPLQTLFAMSQDAKAGFSREDRLEQAKLFCRTLEEILEDVPESRNNCRLIVYQEPTDGNSFSLSQEVLRHIRQEEKEEVTMNAPMTSVAPPPSVLSQEPRLLISGMDQPLPLRTDLI
notes: STING (TMEM173), endogenous in murine embryonic fibroblasts and bone marrow-derived macrophages; source: endogenous, MEF lysate and BMDM lysate (cells transfected with B-DNA)
Q: With B1 as the protein, how does the “stoichiometry N” value read?
A: 2
